# Data from publication PMC7190642.
# How the values were obtained:
# [1] = target: GST-MDM2-419–C-S429E (human) (UniProt Q00987)
# [2] = target: GST-MDM2-350–C-6D (human) (UniProt Q00987); test: SPR; GST-tagged MDM2 variants captured on a CM-5 chip with coupled anti-GST antibody; serial dilution of UbcH5B–Ub as analyte; 25 °C; 25 mM Tris-HCl pH 7.6, 150 mM NaCl, 0.1 mg/ml BSA, 1 mM DTT, 0.005% Tween-20; Biacore T200; GST alone subtracted
# [3] = target: GST-MDM2-350–C-6D/His-MDMX-428–C heterodimer (UniProt Q00987); test: as above
# [4] = target: GST-MDM2-350–C-S386D (human) (UniProt Q00987); test: as above
# [5] = target: GST-MDM2-350–C-S395D (human) (UniProt Q00987); test: as above
# [6] = target: GST-MDM2-350–C-S407D (human) (UniProt Q00987); test: as above
# [7] = target: GST-MDM2-350–C-S425D (human) (UniProt Q00987); test: as above
# [8] = target: GST-MDM2-350–C-S429D (human) (UniProt Q00987); test: as above
# [9] = target: GST-MDM2-350–C-T419D (human) (UniProt Q00987); test: as above
# [10] = target: GST-MDM2-350–C/His-MDMX-428–C heterodimer (UniProt Q00987); test: as above
# GST-MDM2-419–C (human) = GST-MDM2-419–C (human) (UniProt Q00987); test: as above
# [11] = target: GST-MDM2-419–C-S429D (human) (UniProt Q00987); test: as above
# [12] = target: GST-MDM2-419–C-S429E (human) (UniProt Q00987); test: as above
# [13] = target: GST-MDM2-419–C-S429E/His-MDMX-418–C heterodimer (UniProt Q00987); test: as above
# [14] = target: GST-MDM2-419–C-pS429 (human) (UniProt Q00987); test: as above
# [15] = target: GST-MDM2-419–C/His-MDMX-418–C heterodimer (UniProt Q00987); test: as above
# [16] = target: GST-cat MDM2-422–C (Felis catus (cat)) (UniProt Q7YRZ8); test: as above
# [17] = target: GST-cat MDM2-422–C-S429E (Felis catus (cat)) (UniProt Q7YRZ8); test: as above
substance,measurement,setting,value
"UbcH5B S22R, C85K–Ub (stably conjugated E2–ubiquitin) (from UniProt P62837 1-147; P0CG47 1-76) (complex)","rate of autoubiquitination of the MDM2 homodimer over time, S429E against WT",[1],1.6 fold
same,Kd,[2],6.7 µM
same,Kd,[3],29.2 µM
same,Kd,[4],13.7 µM
same,Kd,[5],13.7 µM
same,Kd,[6],13.7 µM
same,Kd,[7],13.4 µM
same,Kd,[8],7.8 µM
same,Kd,[9],13 µM
same,Kd,[10],36.7 µM
same,Kd,GST-MDM2-419–C (human),14 µM
same,Kd,[11],7.1 µM
same,Kd,[12],6.4 µM
same,Kd,[13],17.8 µM
same,Kd,[14],5.1 µM
same,Kd,[15],23.4 µM
same,Kd,[16],16.8 µM
same,Kd,[17],6.8 µM
